Experimental data as given in patent publication US7727968B2, “Combination therapy for the treatment of acute leukemia and myelodysplastic syndrome” (priority 2002, dated 2010).
Counter-ions that a name gives are not always drawn.

What was measured:
[1] = tested on: patients with relapsed, refractory, or de novo AML; assay: Phase 1/2 study combining gemtuzumab ozogamicin with cytarabine and daunorubicin (Example 1); conditions: in the triple combination
Experimental: The maximum tolerated dose was determined to be cytarabine 100 mg/m^2/day by continuous infusion on days 1 through 7, daunorubicin 45 mg/m^2 by intravenous bolus on days 1 through 3, and gemtuzumab ozogamicin 6 mg/m^2 by 2-hour infusion on day 4.
A detailed safety and efficacy evaluation was performed on the first 19 patients treated with this combination induction regimen and subsequently followed for at least 28 days. There were sixteen men and three women enrolled with a median age of 46 years (range, 20 to 60). One, ten, and three patients were categorized in favorable-, intermediate- and poor-risk cytogenetic groups, respectively. Cytogenetic analysis was not available for five patients.

[2] = tested on: adult acute nonlymphocytic leukemia; conditions: used as a single agent; cited from earlier work
[3] = tested on: AML patients; assay: UK safety study combining gemtuzumab ozogamicin with intensive chemotherapy before the MRC AML15 trial (Example 2); assay type: in vivo, human
Experimental: The feasibility of combining gemtuzumab ozogamicin with intensive chemotherapy for induction and/or consolidation was evaluated in 67 patients in a safety study in the United Kingdom prior to the start of the Medical Research […] AML15 trial. The aim was to combine gemtuzumab ozogamicin with chemotherapy planned in the trial, (DAT; Daunorubicin, AraC, Thioguanine, or DA; Daunorubicin AraC; or FLAG-IDA; Fludarabine, AraC, G-CSF, Idarubicin) as course 1. Course 1 was given using gemtuzumab ozogamicin in an amount of 3 mg/m^2 on day 1 of chemotherapy in 55 patients. Thirty-three patients received gemtuzumab ozogamicin with DAT. Eight patients received gemtuzumab ozogamicin with DA. Fourteen patients received gemtuzumab ozogamicin with FLAG-Ida. Of the 55 patients treated, 41 […] entered complete remission with course 1 broken down as follows: […] DAT=26/32; (2) DA=7/8; and (3) FLAG-Ida=8/8. Prior experience in a separate trial designated MRC AML12 where 720 patients were treated with H-DAT alone in course 1, 64% of those patients achieved complete remission. In the present study, the median time to ANC recovery (1×10^9/l) was 27 days (range 9-54) and platelets >100×10^9/l was 30 (range 21-48) which is within the mean+ISD of the 720 patients treated with H-DAT alone in the MRC AML12 trial. Non-hemopoietic toxicity was confined to the liver. Overall the maximum toxicity was Grade 1=5 patients, Grade 2=22 patients, Grade 3=13 patients and Grade 4=10 patients. Of the Grade 3 and 4 toxicities, 7 were felt to be definitely associated with gemtuzumab ozogamicin therapy. A possible contributory factor was the inclusion of Thioguanine. Of the 39 recipients where Thioguanine was included in the schedules, 22 developed Grade 3 or 4 liver toxicity compared with 1 for 16 recipients of non-Thioguanine schedules. […]
The overall survival of all patients receiving gemtuzumab ozogamicin in a dose of 3 mg/m^2 with course 1 at 6 months is 73% and at 12 months is 68%. For the patient receiving non-Thioguanine induction with 3 mg/m^2 of gemtuzumab ozogamicin, the 6 month survival is 91%.

[4] = tested on: patients with AML; conditions: cited from earlier work
[5] = tested on: patients with poor prognosis AML; conditions: refractory AML; single dose GO 9 mg/m^2 three days prior to first pulse of chemotherapy; cited from earlier work
[6] = tested on: AML patients <60 years of age; conditions: cited from earlier work
[7] = GO 3 mg/m^2 with course 1 chemotherapy
[8] = all patients receiving GO 3 mg/m^2 with course 1

Nc1ccn([C@@H]2O[C@H](CO)[C@@H](O)[C@@H]2O)c(=O)n1 [cytarabine, 4-amino-1-(beta)-D-arabinofuranosyl-2(1H)-pyrimidinone]
maximum tolerated dose ([1]; continuous infusion days 1 through 7): 100 mg/m^2/day

COc1cccc2c1C(=O)c1c(O)c3c(c(O)c1C2=O)C[C@@](O)(C(C)=O)C[C@@H]3O[C@H]1C[C@H](N)[C@H](O)[C@H](C)O1 [daunorubicin hydrochloride, (1 S,3 S)-3-Acetyl-1,2,3,4,6,11-hexahydro-3,5,12-trihydroxy-10-methoxy-6,11-dioxo-1-naphthacenyl 3-amino-2,3,6-trideoxy-(alpha)-L-lyxo-hexopyranoside hydrochloride]
complete remission rates [2]: 40 to 50%

COc1cccc2c1C(=O)c1c(O)c3c(c(O)c1C2=O)C[C@@](O)(C(C)=O)C[C@@H]3O[C@H]1C[C@H](N)[C@H](O)[C@H](C)O1 [daunorubicin, (8S-cis)-8-acetyl-10-[(3-amino-2,3,6-trideoxy-(alpha)-L-lyxo-hexopyranosyl)oxy]-7,8,9,10-tetrahydro-6,8,11-trihydroxy-1-methoxy-5,12-naphthacenedione hydrochloride]
maximum tolerated dose ([1]; intravenous bolus days 1 through 3): 45 mg/m^2

gemtuzumab ozogamicin: recombinant humanized IgG4, kappa anti-CD33 antibody conjugated with N-acetyl-gamma calicheamicin via a bifunctional linker
feasibility ([3]; GO 3 mg/m^2 in course 1 and GO 3 mg/m^2 in course 3, twelve patients): appears to be feasible | complete remission with course 1 ([3]; GO 3 mg/m^2 on day 1 of chemotherapy (DAT, DA or FLAG-Ida), 41 of 55 patients treated): 85% | Grade 3 and 4 toxicities felt to be definitely associated with gemtuzumab ozogamicin therapy [3, 7]: 7 | maximum liver toxicity Grade 1 [3, 7]: 5 patients | maximum liver toxicity Grade 2 [3, 7]: 22 patients | maximum liver toxicity Grade 3 [3, 7]: 13 patients | maximum liver toxicity Grade 4 [3, 7]: 10 patients | median time to ANC recovery (1×10^9/l) ([3]; GO 3 mg/m^2 with course 1 chemotherapy, range 9-54): 27 days | median time to platelets >100×10^9/l ([3]; GO 3 mg/m^2 with course 1 chemotherapy, range 21-48): 30 days | recipients developing Grade 3 or 4 liver toxicity ([3]; Thioguanine included in the schedules, 39 recipients): 22 | overall survival at 6 months [3, 8]: 73% | overall survival at 12 months [3, 8]: 68% | 6 month survival ([3]; non-Thioguanine induction with GO 3 mg/m^2): 91% | recipients developing Grade 3 or 4 liver toxicity ([3]; non-Thioguanine schedules, 16 recipients): 1 | increased risk of developing significant hepatotoxicity ([4]; patients who did not undergo stem cell transplantation): ≤ 10% | response rate ([4]; patients with relapsed AML): < 40% | patients entering complete remission [5]: two of four | liver toxicity ([6]; GO 6 mg/m^2 dose with H-DAT or S-DAT): increased liver toxicity | toxicity in patients receiving GO in courses 1 and 2 ([6]; with H-DAT or S-DAT induction, one patient died): delayed hematological recovery and VOD | maximum tolerated dose ([1]; 2-hour infusion on day 4): 6 mg/m^2
